Results: the supplement of paper PMC11246515
± gives the standard deviation of the averaged measurements.

Experiment: total protein half-life in vivo (active degradation + dilution); higher = more stable protein
[1] = E. coli NCM3722 delta-clpP delta-lon delta-hslV, growth: N-lim chemostat, doubling time 6 h
[2] = E. coli NCM3722 delta-clpP, growth: N-lim chemostat, doubling time 6 h
[3] = E. coli NCM3722 delta-hslV, growth: N-lim chemostat, doubling time 6 h
[4] = E. coli NCM3722 delta-lon, growth: N-lim chemostat, doubling time 6 h
[5] = E. coli NCM3722 delta-smpB, growth: N-lim chemostat, doubling time 6 h
[6] = wild type E. coli NCM3722, growth: C-lim chemostat, doubling time 3 h
[7] = wild type E. coli NCM3722, growth: C-lim chemostat, doubling time 6 h
[8] = wild type E. coli NCM3722, growth: C-lim chemostat, doubling time 12 h
[9] = wild type E. coli NCM3722, growth: N-lim chemostat, doubling time 6 h
[10] = wild type E. coli NCM3722, growth: N-lim chemostat, doubling time 12 h
[11] = wild type E. coli NCM3722, growth: P-lim chemostat, doubling time 6 h
[12] = wild type E. coli NCM3722, growth: P-lim chemostat, doubling time 12 h

Row | Sequence | total protein half-life in vivo [1] [h] | total protein half-life in vivo [2] [h] | total protein half-life in vivo [3] [h] | total protein half-life in vivo [4] [h] | total protein half-life in vivo [5] [h] | total protein half-life in vivo [6] [h] | total protein half-life in vivo [7] [h] | total protein half-life in vivo [8] [h] | total protein half-life in vivo [9] [h] | total protein half-life in vivo [10] [h] | total protein half-life in vivo [11] [h] | total protein half-life in vivo [12] [h]
1 | MFDSTLNPLWQRYILAVQEEVKPALGCTEPISLALAAAVAAAELEGPVERVEAWVSPNLMKNGLGVTVPGTGMVGLPIAAALGALGGNANAGLEVLKDATAQAIADAKALLAAGKVSVKIQEPCDEILFSRAKVWNGEKWACVTIVGGHTNIVHIETHDGVVFTQQACVAEGEQESPLTVLSRTTLAEILKFVNEVPFAAIRFILDSAKLNCALSQEGLSGKWGLHIGATLEKQCERGLLAKDLSSSIVIRTSAASDARMGGATLPAMSNSGSGNQGITATMPVVVVAEHFGADDERLARALMLSHLSAIYIHNQLPRLSALCAATTAAMGAAAGMAWLVDGRYETISMAISSMIGDVSGMICDGASNSCAMKVSTSASAAWKAVLMALDDTAVTGNEGIVAHDVEQSIANLCALASHSMQQTDRQIIEIMASKAR | 4.74 ± 0.075 |  |  |  |  |  |  |  |  |  |  | 
2 | MKRFSLAILALVVATGAQAASEKVEMNLVTSQGVGQSIGSVTITETDKGLEFSPDLKALPPGEHGFHIHAKGSCQPATKDGKASAAESAGGHLDPQNTGKHEGPEGAGHLGDLPALVVNNDGKATDAVIAPRLKSLDEIKDKALMVHVGGDNMSDQPKPLGGGGERYACGVIK [P0AGD1] | 5.72 ± 1.6 | 6.84 ± 0.29 | 6.36 ± 0.53 | 6.86 ± 0.16 | 5.11 ± 0.17 | 2.81 ± 0.45 | 6.27 ± 0.81 | 10 ± 1.8 | 6.57 ± 0.63 | 11.8 ± 1.3 | 5.69 ± 0.66 | 11 ± 0.99
3 | MIGSLTARIFAIFWLTLALVLMLVLMLPKLDSRQMTELLDSEQRQGLMIEQHVEAELANDPPNDLMWWRRLFRAIDKWAPPGQRLLLVTTEGRVIGAERSEMQIIRNFIGQADNADHPQKKKYGRVELVGPFSVRDGEDNYQLYLIRPASSSQSDFINLLFDRPLLLLIVTMLVSTPLLLWLAWSLAKPARKLKNAADEVAQGNLRQHPELEAGPQEFLAAGASFNQMVTALERMMTSQQRLLSDISHELRTPLTRLQLGTALLRRRSGESKELERIETEAQRLDSMINDLLVMSRNQQKNALVSETIKANQLWSEVLDNAAFEAEQMGKSLTVNFPPGPWPLYGNPNALESALENIVRNALRYSHTKIEVGFAVDKDGITITVDDDGPGVSPEDREQIFRPFYRTDEARDRESGGTGLGLAIVETAIQQHRGWVKAEDSPLGGLRLVIWLPLYKRS [P0AE82] | 6.5 ± 0.57 | 6.88 ± 0.076 |  | 5.674 ± 0.024 | 5.86 ± 0.35 | 2.971 ± 0.0099 | 5.92 ± 0.31 | 9.91 ± 1.8 | 6.07 ± 0.074 | 12.8 ± 0.79 | 5.98 ± 0.15 | 11.8 ± 0.38
4 | MPPRALLLVDLQNDFCAGGALAVPEGDSTVDVANRLIDWCQSRGEAVIASQDWHPANHGSFASQHGVEPYTPGQLDGLPQTFWPDHCVQNSEGAQLHPLLHQKAIAAVFHKGENPLVDSYSAFFDNGRRQKTSLDDWLRDHEIDELIVMGLATDYCVKFTVLDALQLGYKVNVITDGCRGVNIQPQDSAHAFMEMSAAGATLYTLADWEETQG | 4.67 ± 0.11 | 3.93 ± 0.17 |  | 4.52 ± 1.1 | 3.78 ± 0.19 | 3.05 ± 0.12 | 6.27 ± 1.3 | 10.1 ± 0.99 | 4.16 ± 0.32 | 6.53 | 4.76 | 11.1 ± 0.22
5 | MSQKLKVVTIGGGSSYTPELLEGFIKRYHELPVSELWLVDVEGGKPKLDIIFDLCQRMIDNAGVPMKLYKTLDRREALKDADFVTTQLRVGQLPARELDERIPLSHGYLGQETNGAGGLFKGLRTIPVIFDIVKDVEELCPNAWVINFTNPAGMVTEAVYRHTGFKRFIGVCNIPIGMKMFIRDVLMLKDSDDLSIDLFGLNHMVFIKDVLINGKSRFAELLDGVASGQLKASSVKNIFDLPFSEGLIRSLNLLPCSYLLYYFKQKEMLAIEMGEYYKGGARAQVVQKVEKQLFELYKNPELKVKPKELEQRGGAYYSDAACEVINAIYNDKQAEHYVNIPHHGQIDNIPADWAVEMTCKLGRDGATPHPRITHFDDKVMGLIHTIKGFEIAASNAALSGEFNDVLLALNLSPLVHSDRDAELLAREMILAHEKWLPNFADCIAELKKAH | 6.05 ± 1.9 | 7.38 | > 8 |  | 3.97 ± 0.054 | 2.84 ± 0.34 | 6.45 ± 1.8 | 9.95 ± 0.38 | 4.52 | 8.23 ± 0.59 | 6.29 ± 0.62 | 11 ± 1.1
6 | MNNRVHQGHLARKRFGQNFLNDQFVIDSIVSAINPQKGQAMVEIGPGLAALTEPVGERLDQLTVIELDRDLAARLQTHPFLGPKLTIYQQDAMTFNFGELAEKMGQPLRVFGNLPYNISTPLMFHLFSYTDAIADMHFMLQKEVVNRLVAGPNSKAYGRLSVMAQYYCNVIPVLEVPPSAFTPPPKVDSAVVRLVPHATMPHPVKDVRVLSRITTEAFNQRRKTIRNSLGNLFSVEVLTGMGIDPAMRAENISVAQYCQMANYLAENAPLQES | 5.45 ± 0.071 | 5.39 ± 0.83 | 5.18 ± 0.36 | 5.84 ± 0.95 | 5.39 ± 0.63 | 2.972 ± 0.017 | 5.41 ± 0.75 | 12.5 ± 1.5 | 5.24 ± 0.29 | 9.91 ± 1.2 | 5.56 ± 0.3 | 10.6 ± 0.28
